# Legend:
# [1] = target: Nucleosomes (cfDNA measured by Nu.Q H3.1 assay) in porcine liver perfusion solution (porcine); assay: batch depletion: porcine liver perfusate with 10% v/v antibody-agarose matrix, 60 min, 37 C; what is left is measured by Nu.Q H3.1 assay; sample 1, before incubation 92466 ng/ml
# [2] = target: Nucleosomes (cfDNA measured by Nu.Q H3.1 assay) in porcine liver perfusion solution (porcine); assay: batch depletion: porcine liver perfusate with 10% v/v antibody-agarose matrix, 60 min, 37 C; what is left is measured by Nu.Q H3.1 assay; sample 3, before incubation 87643 ng/ml
# [3] = target: Nucleosomes (cfDNA measured by Nu.Q H3.1 assay) in porcine liver perfusion solution (porcine); assay: batch depletion: porcine liver perfusate with 10% v/v antibody-agarose matrix, 60 min, 37 C; what is left is measured by Nu.Q H3.1 assay; sample 2, before incubation 73536 ng/ml
substance,measurement,setting,value
"Antibody against histone H3.1 (Merck Millipore MABE952), coupled to NHS-activated Sepharose 4 Fast Flow",cfDNA quantity in perfusate after incubation with the matrix (Nu.Q H3 Assay),[1],38800 ng/mL
same,cfDNA quantity in perfusate after incubation with the matrix (Nu.Q H3 Assay),[2],29800 ng/mL
same,cfDNA quantity in perfusate after incubation with the matrix (Nu.Q H3 Assay),[3],24300 ng/mL

# From patent US20230201439A1
